Consider one molecule from patent WO2006089678A2 (dated 2006).

The EC50 is the concentration giving half of the maximal effect.

Assay [1] concerns the target T1, Tat, excreted regulatory protein encoded by HIV-1 (HIV-1 IIIB, in infected Jurkat cells) (HIV-1 IIIB, UniProt P04610 1-86).
T1 sequence: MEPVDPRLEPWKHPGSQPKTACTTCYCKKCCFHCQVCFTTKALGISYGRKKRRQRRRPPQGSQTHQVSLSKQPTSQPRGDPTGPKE
In words: cell-based or functional assay.

Assay [2] deals with T2, target epitope BSA conjugated peptide (HIV-1, conjugated to BSA).
T2 construct: also called peptide conjugated to BSA
In words: ELISA, BSA-conjugated peptide coated on plates, HRP rabbit anti-human IgG, luminescence. (In general: An ELISA detects its analyte on a solid surface through an enzyme-linked reagent.)

B1: n-CoDeR ® anti-Tat antibody (antibody, V domains shown)
VH: EVQLLESGGGLVQPGGSLRLSCAASGFTFDDYGMAWVRQAPGKGLEWVSGVSWNGSRTHYADSVKGRFTISRDNSKNTLYLQMNSLRAEDTAVYYCARGVAGHDYWGQGTLVTVSS
VL: QSVLTQPPSASGTPGQRVTISCSGSRSNIGSHYVFWYQQLPGTAPKLLIYDNNKRPSGVPDRFSGSKSGTSASLAISGLRSEDEADYYCAAWDGSLSGHVVFGGGTKLTVLG
notes: Human IgG1 lambda, expressed in CHO cells; also called fully human recombinant IgG1 antibody from the n-CoDeR phage display library
With B1, in assay [1], the “IC50 of inhibition of HIV-1 replication, 1 % initially HIV-1 IIIB infected Jurkat cells, p24 ELISA” value was found to be 0.05 µg/mL and the “IC50 of inhibition of HIV-1 replication, 3 % initially HIV-1 IIIB infected Jurkat cells, p24 ELISA” value came out at 0.07 µg/mL. Further, the response in assay [2] was half-maximal at 0.7 nM (EC50).
